Laboratory results published in patent publication KR20190105077A.

Experiments:
Assay in all cases: cell-based or functional assay
[1] = biological target: 인간 PD-1 (human PD-1) (human) (UniProt Q15116)
[2] = biological target: 배양된 세포에 의해 내인적으로 생성되는 TGF-β
[3] = biological target: 인간 TGF-β1 (human TGF-β1) (human) (UniProt P01137)
Chain of UniProt P01137 (P01137 279-390 limits assumed): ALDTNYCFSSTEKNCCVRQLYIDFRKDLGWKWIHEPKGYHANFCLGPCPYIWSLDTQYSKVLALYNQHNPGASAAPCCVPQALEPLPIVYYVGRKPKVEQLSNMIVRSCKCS

Chain of UniProt Q15116 (Q15116 25-288): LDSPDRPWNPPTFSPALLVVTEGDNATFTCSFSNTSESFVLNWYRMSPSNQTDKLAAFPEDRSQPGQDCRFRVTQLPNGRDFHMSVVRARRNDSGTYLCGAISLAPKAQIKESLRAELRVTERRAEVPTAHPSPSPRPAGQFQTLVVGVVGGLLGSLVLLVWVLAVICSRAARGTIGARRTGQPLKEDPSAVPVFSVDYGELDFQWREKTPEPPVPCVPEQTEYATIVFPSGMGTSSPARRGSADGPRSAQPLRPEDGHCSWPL

NFAT-루시퍼라제 상대 발광 단위, 인간 PD-1 발현 Jurkat T 세포와 인간 PD-L1 발현 CHO-K1 세포의 24시간 공동-배양 [1]	루시퍼라제 활성의 배율 변화, 항-hPD-1 항체 대 이소형 대조군 (234963 RLU) [1]	루시퍼라제 활성의 배율 변화, 항-hPD-1 항체 대 항체 부재 (206043 RLU) [1]	iTreg(FOXP3+CD25+) 백분율, 자극된 인간 CD4+ T 세포, 항체 50 ㎍/㎖, 외인성 TGF-β 없음 (항체 없이 15%) [2]	NFAT-루시퍼라제 상대 발광 단위, 18 ng/㎖ TGF-β1로 12일 사전-처리된 Jurkat T 세포, 항-PD-1 Ab 존재 하 CHO-K1 공동-배양 (Ab 부재: 638866) [3]	iTreg(CD25+FOXP3+) 백분율, 자극된 인간 CD4+ T 세포 + 2 ng/㎖ 인간 TGF-β1, 항체 200 ㎍/㎖ 및 6.25 ㎍/㎖ (항체 없이 55%) [3]	Substance
866000 RLU	3.69 배	4.2 배	–	–	–	마우스 항-hPD-1 IgG (BioLegend Cat#329912) (antibody)
–	–	–	20%	639000 RLU	60%	항-HEL hIgG4 (인간 IgG4, 카파 항-계란 라이소자임 항체, Crown Bioscience) (antibody)
